Source: US20190376046

Experiments:
[1] = target: Alpha-enolase (encoded by ENO1) (UniProt P06733)
[2] = target: T1, Fructose-bisphosphate aldolase A (encoded by ALDOA) (UniProt P04075)
T1 sequence: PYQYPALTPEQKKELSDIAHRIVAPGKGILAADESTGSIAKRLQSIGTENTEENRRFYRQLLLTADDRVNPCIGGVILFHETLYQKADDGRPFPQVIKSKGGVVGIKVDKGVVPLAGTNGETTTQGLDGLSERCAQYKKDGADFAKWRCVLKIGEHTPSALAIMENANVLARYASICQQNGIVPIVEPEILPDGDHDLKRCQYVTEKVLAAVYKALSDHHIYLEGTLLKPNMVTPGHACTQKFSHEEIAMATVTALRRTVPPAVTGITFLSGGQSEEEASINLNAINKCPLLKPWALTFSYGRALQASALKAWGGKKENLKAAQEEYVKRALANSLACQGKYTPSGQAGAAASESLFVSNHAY

[3] = target: Glyceraldehyde-3-phosphate dehydrogenase (encoded by GAPDH) (UniProt P04406)
Sequence of Glyceraldehyde-3-phosphate dehydrogenase (encoded by GAPDH) (P04406 2-335): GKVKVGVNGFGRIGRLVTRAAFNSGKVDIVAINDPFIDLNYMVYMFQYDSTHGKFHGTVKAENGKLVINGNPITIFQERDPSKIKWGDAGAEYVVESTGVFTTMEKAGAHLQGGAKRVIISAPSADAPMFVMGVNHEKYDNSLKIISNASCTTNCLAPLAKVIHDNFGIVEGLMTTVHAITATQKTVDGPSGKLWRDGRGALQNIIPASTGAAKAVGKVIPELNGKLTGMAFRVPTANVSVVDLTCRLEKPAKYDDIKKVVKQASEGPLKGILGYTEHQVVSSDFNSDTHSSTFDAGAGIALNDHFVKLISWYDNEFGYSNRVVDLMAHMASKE

[4] = target: T2, Phosphoglycerate kinase 1 (encoded by PGK1) (UniProt P00558)
T2 sequence: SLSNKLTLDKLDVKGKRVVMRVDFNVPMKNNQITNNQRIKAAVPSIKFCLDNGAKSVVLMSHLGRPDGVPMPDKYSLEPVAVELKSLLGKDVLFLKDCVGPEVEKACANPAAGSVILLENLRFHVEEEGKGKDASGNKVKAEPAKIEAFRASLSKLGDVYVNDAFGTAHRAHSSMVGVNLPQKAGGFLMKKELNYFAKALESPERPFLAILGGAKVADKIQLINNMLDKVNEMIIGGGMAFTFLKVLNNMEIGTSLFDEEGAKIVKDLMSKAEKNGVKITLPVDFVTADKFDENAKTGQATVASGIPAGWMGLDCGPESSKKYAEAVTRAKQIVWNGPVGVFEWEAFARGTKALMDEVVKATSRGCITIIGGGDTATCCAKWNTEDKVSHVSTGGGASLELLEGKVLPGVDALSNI

Sequence of Alpha-enolase (encoded by ENO1) (P06733 2-434): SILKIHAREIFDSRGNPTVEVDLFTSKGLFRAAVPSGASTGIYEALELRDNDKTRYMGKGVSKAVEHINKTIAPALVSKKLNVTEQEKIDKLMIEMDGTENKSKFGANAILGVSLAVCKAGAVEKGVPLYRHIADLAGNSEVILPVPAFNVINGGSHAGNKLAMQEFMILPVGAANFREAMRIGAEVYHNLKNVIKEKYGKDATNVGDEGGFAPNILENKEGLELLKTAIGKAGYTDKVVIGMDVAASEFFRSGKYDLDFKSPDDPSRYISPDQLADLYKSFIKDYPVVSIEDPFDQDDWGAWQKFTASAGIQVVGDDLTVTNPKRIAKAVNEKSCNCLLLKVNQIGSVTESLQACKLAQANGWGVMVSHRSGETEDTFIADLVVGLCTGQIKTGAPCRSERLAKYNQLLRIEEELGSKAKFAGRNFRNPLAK

## Sirtuin 2 (SIRT2), human
[1]
  acetylation level (IP with specific antibody, western blot with anti-acetyl-Lys, and the reverse): forced expression of SIRT2 in hESCs prominently deacetylated all four enzymes tested (aldolase, PGK1, enolase, and GAPDH)
  acetylation level after SIRT2 knockdown in hDFs (IP, western blot with anti-acetyl-Lys): Acetylation levels of aldolase, enolase, PGK1 and GAPDH were substantially increased in SIRT2 KD fibroblasts
[2]
  acetylation level (IP with specific antibody, western blot with anti-acetyl-Lys, and the reverse): forced expression of SIRT2 in hESCs prominently deacetylated all four enzymes tested (aldolase, PGK1, enolase, and GAPDH)
  acetylation level after SIRT2 knockdown in hDFs (IP, western blot with anti-acetyl-Lys): Acetylation levels of aldolase, enolase, PGK1 and GAPDH were substantially increased in SIRT2 KD fibroblasts
[3]
  acetylation level (IP with specific antibody, western blot with anti-acetyl-Lys, and the reverse): forced expression of SIRT2 in hESCs prominently deacetylated all four enzymes tested (aldolase, PGK1, enolase, and GAPDH)
  acetylation level after SIRT2 knockdown in hDFs (IP, western blot with anti-acetyl-Lys): Acetylation levels of aldolase, enolase, PGK1 and GAPDH were substantially increased in SIRT2 KD fibroblasts
[4]
  acetylation level (IP with specific antibody, western blot with anti-acetyl-Lys, and the reverse): forced expression of SIRT2 in hESCs prominently deacetylated all four enzymes tested (aldolase, PGK1, enolase, and GAPDH)
  acetylation level after SIRT2 knockdown in hDFs (IP, western blot with anti-acetyl-Lys): Acetylation levels of aldolase, enolase, PGK1 and GAPDH were substantially increased in SIRT2 KD fibroblasts
